According to IntAct's records for PubMed 24338975:

Experiments:
psd10_human PSMD10 [1] = target: psd10_human PSMD10 (UniProt O75832)
psd10_human PSMD10 [2] = target: psd10_human PSMD10 (UniProt O75832); remark: listed apart in the source

psd10_human PSMD10, sequence (O75832 whole entry): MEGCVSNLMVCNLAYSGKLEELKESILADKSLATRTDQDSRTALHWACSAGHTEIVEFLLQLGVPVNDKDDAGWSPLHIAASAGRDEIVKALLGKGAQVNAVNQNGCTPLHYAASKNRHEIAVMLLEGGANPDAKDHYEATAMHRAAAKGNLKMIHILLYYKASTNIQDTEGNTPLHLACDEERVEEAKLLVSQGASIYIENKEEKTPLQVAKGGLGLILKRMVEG
Cytoplasmic protein NCK2 (Homo sapiens), O43639 E167A;E168A;D170A, sequence (O43639 whole entry E167A/E168A/D170A): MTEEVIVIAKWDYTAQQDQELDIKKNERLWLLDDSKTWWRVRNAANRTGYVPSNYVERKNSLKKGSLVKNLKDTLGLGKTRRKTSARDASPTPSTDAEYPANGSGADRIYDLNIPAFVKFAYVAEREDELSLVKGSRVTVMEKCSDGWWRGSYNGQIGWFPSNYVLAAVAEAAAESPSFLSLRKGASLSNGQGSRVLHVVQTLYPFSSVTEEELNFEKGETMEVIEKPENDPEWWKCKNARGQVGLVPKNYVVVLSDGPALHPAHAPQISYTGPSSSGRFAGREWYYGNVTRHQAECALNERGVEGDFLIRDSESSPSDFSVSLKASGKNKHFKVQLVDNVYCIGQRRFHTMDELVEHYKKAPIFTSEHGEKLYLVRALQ

Row | Substance | effect of a mutation on the interaction (psd10_human PSMD10 [1]) | effect of a mutation on the interaction (psd10_human PSMD10 [2])
1 | Chloride intracellular channel protein 1 (Homo sapiens) (from UniProt O00299) E150A;E151A;D153A | disrupting interaction strength | 
2 | Cytoplasmic protein NCK2 (Homo sapiens), O43639 E167A;E168A;D170A |  | disrupting interaction strength
3 | Chloride intracellular channel protein 1 (Homo sapiens) (from UniProt O00299) V152E | with no effect | 
